Assay results published in the supplement of paper PMC9170038.

System: K4 kissing-loop RNA reporter
Test: apparent KD of K4 kissing-loop reporter; higher = weaker reporter binding
Conditions: Eterna round: R107
Experimental: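 RNA-MaP round R107: designed RNA switches with theophylline, tryptophan, arginine or FMN aptamers are transcribed on-chip within common flanks. They are titrated with a labelled K4 kissing-loop RNA reporter in RNA-MaP buffer (100 mM Tris pH 7.5, 80 mM KCl, 4 mM MgCl2), without ligand or with the indicated ligand. Median apparent KD per design.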

[1] = input ligand: theophylline 20 uM
[2] = input ligand: tryptophan 2.4 mM
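Further: bound reporter read as fluorescence of individual clusters on recovered sequencing chips by microscopy, with normalized cluster intensities fitted with a binding model.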

Sequence	apparent KD of K4 kissing-loop reporter (input ligand: FMN 200 uM) [nM]	apparent KD of K4 kissing-loop reporter (input ligand: arginine 13.2 mM) [nM]	apparent KD of K4 kissing-loop reporter (input ligand: none) [nM]	apparent KD of K4 kissing-loop reporter [1] [nM]	apparent KD of K4 kissing-loop reporter [2] [nM]
GGGAGUAGUGCGGCCGCCACUGUGAAAGAAGAAGAAUAUAGUGAUGUUAUAUAGGAAUAAAAGAAUAGGACCGGGCAUUAGAUUU [SSTRyptB.R]	334	231	134	113	139
GGGAUGUAGUGAUGUUAUAUUGGAUGUAGACGAGGACCGGUACGGCCGCCACUCGUGAUGGCUGCUAGCACGUUUCGAUGUUUGC [ExTryptoA.Cs]	410	429	424	433	330
GGGCCAUGGUUUUUGCUAGUGAUGUUAGACCGAGGACCGGUACGGCCGCCACUCGGCAAGUCUUUCGUUAGAUCUCUGGGAAGUC [theeternabot_exclusion_KL_Trp_A_45]	810	661	1110	1160	578
GGGCGCGGCGCGGCCGCCACUGGGCCUGGGCGCUCGCUGAGUGAUGUUCGCCGGCGGCUGGGUCGUAGGACCGGGUGCCGGCUGG [BDazzled - #3 SS Tryptophan B]	610	490	1270	902	452
GGGCGUGGCGCGGCCGCCACUGCGCCUGGGUGCUCGCUGAGUGAUGUUCGUCGGCGGUUGGGUGGUAGGACCGGGUGCUGGCCGG [BDazzled - #12 SS Tryptophan B]	773	318	581	595	471
GGGCGUGGCGCGGCCGCCACUGCGCCUGGGUGCUCGCUGAGUGAUGUUCGUCGGCGGUUGGGUGGUAGGACCGGGUGCUGGUCGG [BDazzled - #11 SS Tryptophan B]	640	407	629	517	563
GGGUCUGCUCGAAGGAGCGCCCUGACAGGUUGCUGCCGUGGGCAGUGAUGUUGCUCAGUCCGGCAGGUAGGUCGCGAGCAGACCC	109	118	102	89.8	105
GGGUGGUAGGCGGCCGCCACUCUGAGCACCCACUGAGUGAUGUUCGUGGCGUAAGCCUGUUCUUAGAGGACCGGGUUUGUUGUUC [Exclusion Tryptophan B GF 17]	207	88	178	128	144
GGGUGUAGUGCGGCCGCCACUGUGAAAGUAGAAGAAUAUAGUGAUGUUAUAUAGGAUUAAAAGAAUAGGACCGGGCAUUAGACUU [#23 K4 Tryptophan B Same State]	214	236	284	248	182
GGGUUCUCGUCGGCCGCCACUUCAUGUAUUUAGCAGGCUUCGCUCAGACUCAGUGAUGUUGGGUAAAGGACCGGGACACAUUCAA [theeternabot_exclusion_KL_Trp_B_50]	372	245	342	304	310
GGUAGCAUGGCGGCCGCCACUGCGAAUGACGGCCACGUGAAAGUUGCCGCAGAGUGAUGUUCUGGCAGGACCGGGCCAUGCUACC	432	372	515	477	354
GGUAGCAUGGCGGCCGCCACUUAGACCCUCCAGGAUGAGGGAAAAUAGCAGUGAUGUUGCUAGGUAAGGACCGGGCCAUGCUACC	230	120	162	156	119
GGUAGCAUGGCGGCCGCCACUUCAAGUGGAGUGAUGUUCCGCGGCAUCGCGAAAGCGAUGCCUGGAAGGACCGGGCCAUGCUACC	1090	858	924	797	306
GGUAGUGCUAGCGAUACCAGUCAUAUCGCUCUGGAGUGAUGUUCCGGAACGUGCGGAGAAGACCCUUGGCAGCGCUUGACUGGAA [Exclusion Theophylline B GF6]	758	539	574	538	736
GGUAUCUAUACAGAUACCAGUCGUACAGCACCAUUACAGGUUAGUGAUGUUAACCUGUACGACCCUUGGCAGCUGUAUAAUAAUA [Theo B Ex t2a]	105	85.4	96.8	121	87.9
GGUAUCUAUACAGAUACCAGUCGUACAGCUGCAUUACAGGUUAGUGAUGUUAACCUGUACGACCCUUGGCAGCUGUAUAGUAGUA [Theo B Ex t2b]	101	72	91.8	100	94
GGUAUCUAUACAGAUACCAGUCGUAUAGGUCGAUUACAGGUUAGUGAUGUUAACCUGUACGACCCUUGGCAGCUGUAUAAUAAUA [Theo B Ex t2]	62	60.3	59.9	51.7	61.9
GGUCGAGUGAUGUUCGAUGUAAUGCAUUCAGAGGAUAUAGGAUUGGCUAGAAGGCUGAAUCGUUCUUCGAGUGAUGUUCGAGGAU [Same State FMN A GF 7]	286	141	213	244	183
GGUGCGCUGUUAGUGAUGUUAACCGAGGAUACCAGUUAGGCGUCUAACCCUUGGCAGCCUCUCUGGUCUCAUCAACGUUGUGCUA [theeternabot_exclusion_KL_Theo_A_37]	600	431	599	641	463
GGUGCGGGCUCGGCCGCCACUCCCGCGGGUCGUAAGGUCCGCUACUGAGUGAUGUUCGGUUGGAGGAGGACCGGGAGCCCGUGCC [#2 Exclusion - Tryptophan B Attempt #19 (HarryS)]	115	113	106	85.3	106
GGUUCCUCAGUGAUGUUGAGGUGACCUCGGCAGGAUAUAGGCAUUACUAGAAGGGCCAAAAGAACCCUGUCCAGCGACACAGGGU [Inatinar]	157	304	310	259	265
GGUUGCAGCCCUGCAUCGUGGGUUUAGAGUAAGGAUAUUCGCCAAGGAAGAAGGUACUCUGCAUUGAGUGAUGUUCAAUAAGAUG [theeternabot_sameState_KL_FMN_A_30]	109	176	146	166	104

Sequence	apparent KD of K4 kissing-loop reporter (input ligand: FMN 200 uM) [nM]	apparent KD of K4 kissing-loop reporter (input ligand: arginine 13.2 mM) [nM]	apparent KD of K4 kissing-loop reporter (input ligand: none) [nM]	apparent KD of K4 kissing-loop reporter [1] [nM]	apparent KD of K4 kissing-loop reporter [2] [nM]
GUACCUUGGAAACAAGGACAGAUAACCGAAGGAGCGCGUGAAAACGCAGGUAGGUCGCGGAAGCAGUGAUGUUGCAAAAGAGAGC [Same State Arginine A GF 17]	168	188	125	228	111
GUACGCUUCCGAGUGAUGUUCGGUAAUAGUUAGGAUAUCGCUUUUGCGAGAAGGAACUGAAUGAGGAAACUCGUUCGAAGUGUAC [FMN A 17]	406	336	540	396	459
GUAGCACUCGAUAGUGAUGUUAUCGAGGGCAAGGAUAUCACCUCAGUGAGAAGGUGUCCUUGAUAACUGCUACGGGAAUAUCCCA [Omei KL FMN A Exc D v8]	270	90.9	101	106	99.6
GUAGCACUUGAUAGUGAUGUUAGCAAGGGCAAGGAUAUCAUCUCAAUGAGAAGGUGUCCUUGCUAACAGCUACGGGAAUAUCCCA [Omei KL FMN A Exc D v5]	173	424	577	579	630
GUAGCUAAAGAAGGAUAUCGGAUCCAAAUCAAGCAGUGAUGUUGCGUGAAGAUCGGCUCCAUGCCGCGAGAAGGUCUUUUCUGUU [theeternabot_sameState_KL_FMN_B_18]	179	305	207	284	147
GUAGCUUGGCUAGGAUAUUAGCGUAGGAGUGAUGUUCCGACUAGCGAAAGCUAGUCUCACGCUAGUUAAGAAGGAGCCAAGCUAC	263	172	175	181	174
GUAGGAUGAGGAGGAGGAUGAAUUACUGAAGGAGCGCAUAUUUAUGCAGGUAGGUCGCGGUAAAGAAGUAUAGUGAUGUUAUAUA [SSArgA.I]	410	343	264	479	246
GUAGUCGUACCUUCAGUGAUGUUGAAGGAUACCAGAUGUUACCACAUCCCUUGGCAGCCUUGGGAUAACAGUGAGUUGGAAUAUG [Soonusa]	161	127	159	138	160
GUAGUGAUGUUACGAAUAUUCCAUCAUAGAGAGGAUAUUGUUCCUUCGAGAAGGUUCUGAGAAUUAAAAUUUAAUAAAAUGAAGG [Exclusion FMN A GF 1]	246	302	277	357	160
GUAGUGAUGUUACGAGUAUUCCAUCGUAGAGAGGAUAUGGUUCCUUCCAGAAGGUUCUGAGAAUUAAAAUUUGAUAAAAUGAGGG [Exclusion FMN A GF 2]	304	251	390	392	252
GUAUCGCUAGGAGGAUAUUCCAAUCCGCCUAUAAUAGGUGGUACGGAGUGAUGUUCCGAUUUACGGGAAGAAGGCCUAGUGAUAC [FMN B 17]	155	318	302	381	346
GUAUCGCUAGGAGGAUAUUCCAUUUUACAUAUAAAUGGAUAUGCGGAGUGAUGUUCCGAUUUACGGGAAGAAGGCCUAGUGAUAC [FMN B 20]	138	220	219	256	208
GUAUCGCUAGGAGGAUAUUUCAAAUAACAAAUAAAUGGUUAUACGGAGUGAUGUUCCGAUUUACGGAAAGAAGGCCUAGUGAUAC [FMN B 4]	112	203	210	218	203
GUAUGUGGAAACACGUACUUAUAUCCUAGGCAGGAUAUGCGGAAACGCAGAAGGGCCACCGGCGAGAAAAUCCAGUGAUGUUGGA [Ex FMN A 7]	260	248	244	238	249
GUAUGUGGAAACACGUACUUGUAUCCUAAGCAGGAUAUGCGGAAACGCAGAAGGGCUACCAACGAGUUUAUCCAGUGAUGUUGGA [Ex FMN A 13]	507	298	332	393	455
GUAUUGUGCCUGGAUACCAGACACCCGAGUGAUGUUCGGAGCAGAGUGAUGUUCUAAUAAGUCCCUUGGCAGCCGGUCGCAGUCG [Same State Theophylline B gf 4]	810	869	914	535	886
GUCAACCCAGCUGAUACCAGCCGGUUACGCACAUGCACACCCAGUGAUGUUGGGUAUUAGGGCCCUUGGCAGCAGCCUCUUGGCU [theeternabot_sameState_KL_Theo_B_30]	165	162	169	182	149
GUCCACACUGCAGGAUAUGGAGAAGUAGCGAGGGAGUUUGGAAGCACACCUCUGGCAGUGAUGUUGCCAGAAGGGCGGUGCGGCG [Inlaindi]	109	80.2	80.6	84.1	93.9
GUCCCAGUGAUGUUGGUAGGCGAGCGGGAUACCAGCCAAGACUCAGGCCCUUGGCAGCCCACAUAUCCCACGUAGGGAGUAGCUC [Same State - Theophylline A (Freestyle 18)]	269	172	210	274	209
GUCCUGAGUGAUGUUCGGGUCGUUCGGGAAGGAGCGCCCGCAAGGGCAGGUAGGUCGCCCGGAUCUCUCAGGUAACUGAGAGACC [#2 Same State - Arginine A Attempt #29 (HarryS)]	563	303	448	554	383
GUCGAUGGUAACCGCUGACGUCGAUGAUGGGAGGAUAUGUUAGUUGACAGAAGGCCCAGUGAUGUUGGGCGUUUGUCUUGGUAUA [Ustecexe]	517	143	145	134	136
